Changes are numbered by the printed parent chain. In names and notes the source's numbering stands.

The target of assay [1] is disulfide-locked α2A domain, “closed” conformation (C150A, C270A, K168C, A325C) (human) (UniProt P17301). The assay is described as follows: ELISA; His-tagged α2A domain (wt or mutant) coated on microtiter wells at 10 μg/ml in TBS/Mg pH 7.4; titrated with RCαβγδ or RCγδ without and with NPS-modified tryptophans in 1% BSA/TBS, 2 mM MgCl2, 1.5 h; bound RC fixed with glutaraldehyde and detected with rabbit RC antiserum, OD 405 nm; Kd by nonlinear regression. For orientation: ELISA stands for enzyme-linked immunosorbent assay.

Assay [2] deals with His6-tagged integrin α2A domain, wild type (human) (UniProt P17301). The assay is described as above.
For assay [3], the target named is α2A domain Y216G mutant (human) (UniProt P17301). As to the kind of experiment: ELISA; α2A wt or mutants (10 μg/ml) captured on immobilised mAb JA218 (2.5 μg/ml), TBS/Mg; titrated with RC; bound RC fixed and detected with rabbit RC antiserum; Kd by nonlinear regression.
Assay [4] has as its target His6-tagged integrin α2A domain, wild type (human) (UniProt P17301). The assay is described as above.
The target in assay [5] is α2A domain D219A mutant (human) (UniProt P17301). The description is as above.
Assay [6] concerns the target α2A domain S214G mutant (human) (UniProt P17301). The assay is described as above.
In assay [7] the target is α2A-L2^α1 mutant (loop 2 of α2A replaced by the loop 2 sequence of the integrin α1 A-domain) (human) (UniProt P17301). The description is as above.
Assay [8] has as its target T1, rhodocetin heterotetramer (RCαβγδ).
T1 chain 1: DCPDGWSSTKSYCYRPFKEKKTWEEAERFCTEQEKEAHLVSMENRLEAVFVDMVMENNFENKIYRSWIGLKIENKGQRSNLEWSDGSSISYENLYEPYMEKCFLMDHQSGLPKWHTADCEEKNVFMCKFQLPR
T1 chain 2: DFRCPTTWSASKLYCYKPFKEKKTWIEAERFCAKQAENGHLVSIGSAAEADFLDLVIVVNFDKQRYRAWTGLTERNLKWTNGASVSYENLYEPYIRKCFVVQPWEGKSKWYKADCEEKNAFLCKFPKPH
T1 chain 3: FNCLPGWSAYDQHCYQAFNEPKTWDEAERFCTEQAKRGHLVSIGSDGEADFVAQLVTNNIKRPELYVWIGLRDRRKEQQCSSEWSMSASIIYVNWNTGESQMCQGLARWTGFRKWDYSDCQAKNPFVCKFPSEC
T1 chain 4: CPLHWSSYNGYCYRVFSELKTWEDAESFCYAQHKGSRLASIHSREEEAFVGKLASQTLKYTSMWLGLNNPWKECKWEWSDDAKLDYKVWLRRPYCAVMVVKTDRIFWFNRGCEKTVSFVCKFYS
The assay is described as follows: ELISA. As to conditions: chain shown with the change; for percent of parent (% of wild type α2A): read at the highest rhodocetin concentration (about 70 nM), α2A captured by immobilized antibody JA218.

Sequence of UniProt P17301 (P17301 142-337 Y216G): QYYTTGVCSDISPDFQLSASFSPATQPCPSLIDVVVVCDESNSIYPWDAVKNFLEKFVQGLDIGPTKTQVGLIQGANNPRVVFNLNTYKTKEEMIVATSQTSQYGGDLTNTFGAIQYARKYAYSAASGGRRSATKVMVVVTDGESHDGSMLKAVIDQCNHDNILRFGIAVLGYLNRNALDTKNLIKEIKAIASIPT

As to “rhodocetin heterotetramer (RCαβγδ) (complex)”, the Kd (in general, the free concentration of one partner at which half of the binding sites on the other are occupied at equilibrium, for simple one-to-one binding) in assay [1] was determined as 0.21 nM; in assay [2], 0.29 nM; in assay [3], 1.98 nM; in assay [4], 0.76 nM; in assay [5], 5.2 nM; in assay [6], 0.77 nM. In assay [7], this molecule gave a Kd of 2.7 nM.

B1: His6-tagged integrin α2A domain, wild type, P17301 C150A; C270A; K168C; E318C (protein)
chain: SLIDVVVVADESNSIYPWDAVKNFLECFVQGLDIGPTKTQVGLIQYANNPRVVFNLNTYKTKEEMIVATSQTSQYGGDLTNTFGAIQYARKYAYSAASGGRRSATKVMVVVTDGESHDGSMLKAVIDQANHDNILRFGIAVLGYLNRNALDTKNLIKEIKAIASIPTERYFFNVSDCAALLEKAGTLGEQIFSIEG
On to B1, for which the response in assay [8] (read at the highest RCαβγδ concentration (about 23 nM), α2A immobilized at 10 μg/ml, parent: est. 2.6, read off a plot) amounted to 0.38 OD405nm. In assay [8] (α2A immobilized to microtiter plates at 10 μg/ml, titrated with RCαβγδ, OD405), this molecule yielded a Kd of 2.64 nM.

B2: His6-tagged integrin α2A domain, wild type, P17301 G218L (protein)
chain: B1 chain with A9C, C27K, G77L, A129C, C177E
With B2, the percent of parent (% of wild type α2A) in assay [8] (read off a plot) is 12.

B3: His6-tagged integrin α2A domain, wild type, P17301 G217K (protein)
chain: B1 chain with A9C, C27K, G76K, A129C, C177E
Regarding B3, the percent of parent (% of wild type α2A) in assay [8] (read off a plot) stood at 11.

The values are drawn from article PMC5509089.
